For 3 molecules, Trimeric HA Binding: RLU results are on record in patent publication US20150086555A1.

Details in all cases: remark: other sources report otherwise
Experiment [1] deals with recombinant soluble homotrimeric HA of A/California/4/09 (H1N1) (Influenza A virus A/California/04/2009(H1N1)). As to the kind of experiment: HA microarray, BCC supernatant.
Experiment [2] concerns the target recombinant soluble homotrimeric HA of A/Japan/305/57 (H2N2) (Influenza A virus A/Japan/305/1957(H2N2)). As to the kind of experiment: HA microarray, BCC supernatant.
For experiment [3], the target named is recombinant soluble homotrimeric HA of A/Netherlands/219/03 (H7N7) (Influenza A virus A/Netherlands/219/03(H7N7)). As to the kind of experiment: HA microarray, BCC supernatant.
For experiment [4], the target named is recombinant soluble homotrimeric HA of A/Solomon Islands/3/06 (H1N1) (Influenza A virus A/Solomon Islands/3/2006(H1N1)). Briefly: HA microarray, BCC supernatant.
For experiment [5], the target named is recombinant soluble homotrimeric HA of A/duck/Yangzhou/02/05 (H8N4) (Influenza A virus A/duck/Yangzhou/02/2005(H8N4)). Briefly: HA microarray, BCC supernatant.
For experiment [6], the target named is recombinant soluble homotrimeric HA of A/swine/Ontario/01911-2/99 (H4N6) (Influenza A virus A/Swine/Ontario/01911-2/99 (H4N6)). Briefly: HA microarray, BCC supernatant.
Experiment [7] has as its target recombinant soluble homotrimeric HA, A/California/4/09 H1N1 (Influenza A virus A/California/04/2009(H1N1)). As to the kind of experiment: microarray, transfection SN IgG, trimeric HA.
The target in experiment [8] is recombinant soluble homotrimeric HA, A/Japan/305/57 H2N2 (Influenza A virus A/Japan/305/1957(H2N2)). As to the kind of experiment: microarray, transfection SN IgG, trimeric HA.
The target of experiment [9] is recombinant soluble homotrimeric HA, A/Netherlands/219/03 H7N7 (Influenza A virus A/Netherlands/219/03(H7N7)). As to the kind of experiment: microarray, transfection SN IgG, trimeric HA.
Experiment [10] deals with recombinant soluble homotrimeric HA, A/Solomon Islands/3/06 H1N1 (Influenza A virus A/Solomon Islands/3/2006(H1N1)). As to the kind of experiment: microarray, transfection SN IgG, trimeric HA.
Experiment [11] concerns the target recombinant soluble homotrimeric HA, A/South Carolina/1/18 H1N1 (Influenza A virus A/South Carolina/1/18 (H1N1)). Briefly: microarray, transfection SN IgG, trimeric HA.
For experiment [12], the target named is recombinant soluble homotrimeric HA, A/chicken/Vietnam/NCVD-016/08 H5N1 (Influenza A virus A/chicken/Vietnam/NCVD-016/2008(H5N1)). Briefly: microarray, transfection SN IgG, trimeric HA.
Experiment [13] concerns the target recombinant soluble homotrimeric HA, A/duck/Yangzhou/02/05 H8N4 (Influenza A virus A/duck/Yangzhou/02/2005(H8N4)). Briefly: microarray, transfection SN IgG, trimeric HA.
The target of experiment [14] is recombinant soluble homotrimeric HA, A/northern shoveler/California/HKWF115/07 H6N4 (Influenza A virus A/northern shoveler/California/HKWF115/2007(H6N1)). Briefly: microarray, transfection SN IgG, trimeric HA.
In experiment [15] the target is recombinant soluble homotrimeric HA, A/swine/Ontario/01911-2/99 H4N6 (Influenza A virus A/Swine/Ontario/01911-2/99 (H4N6)). Briefly: microarray, transfection SN IgG, trimeric HA.
Experiment [16] has as its target recombinant soluble homotrimeric HA, A/Egypt/3300-NAMRU3/08 H5N1 (Influenza A virus A/Egypt/3300-NAMRU3/2008(H5N1)). As to the kind of experiment: microarray, transfection SN IgG, trimeric HA.
Experiment [17] concerns the target recombinant soluble homotrimeric HA, A/Wisconsin/67/05 H3N2 (Influenza A virus A/Wisconsin/67/2005(H3N2)). As to the kind of experiment: microarray, transfection SN IgG, trimeric HA.
The target in experiment [18] is recombinant homotrimeric HA A/California/4/09 H1N1 (Influenza A virus A/California/04/2009(H1N1)). Briefly: protein microarray, purified IgG, trimeric HA.
In experiment [19] the target is recombinant homotrimeric HA A/Egypt/3300-NAMRU3/08 H5N1 (Influenza A virus A/Egypt/3300-NAMRU3/2008(H5N1)). As to the kind of experiment: protein microarray, purified IgG, trimeric HA.
In experiment [20] the target is recombinant homotrimeric HA A/Hong Kong/1073/99 H9N2 (Influenza A virus A/Hong Kong/1073/99 (H9N2)). Briefly: protein microarray, purified IgG, trimeric HA.
Experiment [21] concerns the target recombinant homotrimeric HA A/Hong Kong/2108/03 H9N2 (Influenza A virus A/HK/2108/2003(H9N2)). Briefly: protein microarray, purified IgG, trimeric HA.
In experiment [22] the target is recombinant homotrimeric HA A/Japan/305/57 H2N2 (Influenza A virus A/Japan/305/1957(H2N2)). As to the kind of experiment: protein microarray, purified IgG, trimeric HA.
In experiment [23] the target is recombinant homotrimeric HA A/Netherlands/219/03 H7N7 (Influenza A virus A/Netherlands/219/03(H7N7)). Briefly: protein microarray, purified IgG, trimeric HA.
In experiment [24] the target is recombinant homotrimeric HA A/Solomon Islands/3/06 H1N1 (Influenza A virus A/Solomon Islands/3/2006(H1N1)). As to the kind of experiment: protein microarray, purified IgG, trimeric HA.
The target in experiment [25] is recombinant homotrimeric HA A/South Carolina/1/18 H1N1 (Influenza A virus A/South Carolina/1/18 (H1N1)). As to the kind of experiment: protein microarray, purified IgG, trimeric HA.
For experiment [26], the target named is recombinant homotrimeric HA A/Wisconsin/67/05 H3N2 (Influenza A virus A/Wisconsin/67/2005(H3N2)). Briefly: protein microarray, purified IgG, trimeric HA.
Experiment [27] concerns the target recombinant homotrimeric HA A/chicken/Vietnam/NCVD-016/08 H5N1 (Influenza A virus A/chicken/Vietnam/NCVD-016/2008(H5N1)). Briefly: protein microarray, purified IgG, trimeric HA.
For experiment [28], the target named is recombinant homotrimeric HA A/northern shoveler/California/HKWF115/07 H6N4 (Influenza A virus A/northern shoveler/California/HKWF115/2007(H6N1)). As to the kind of experiment: protein microarray, purified IgG, trimeric HA.
Experiment [29] concerns the target recombinant soluble homotrimeric HA of A/Indonesia/5/05 (H5N1) (Influenza A virus A/Indonesia/5/2005(H5N1)). As to the kind of experiment: HA microarray, BCC supernatant.
In experiment [30] the target is T1, recombinant soluble homotrimeric HA of A/Vietnam/1203/04 (H5N1) (Influenza A virus A/VietNam/1203/2004(H5N1)). As to the kind of experiment: HA microarray, BCC supernatant.
The target of experiment [31] is recombinant soluble homotrimeric HA of A/Wisconsin/67/05 (H3N2) (Influenza A virus A/Wisconsin/67/2005(H3N2)). Briefly: HA microarray, BCC supernatant.
Experiment [32] addresses recombinant homotrimeric HA A/Anhui/1/05 H5N1 (Influenza A virus A/Anhui/1/2005(H5N1)). As to the kind of experiment: protein microarray, purified IgG, trimeric HA.
Experiment [33] deals with recombinant homotrimeric HA A/Indonesia/5/05 H5N1 (Influenza A virus A/Indonesia/5/2005(H5N1)). Briefly: protein microarray, purified IgG, trimeric HA.
The target in experiment [34] is recombinant homotrimeric HA A/Vietnam/1203/04 H5N1 (Influenza A virus A/VietNam/1203/2004(H5N1)). As to the kind of experiment: protein microarray, purified IgG, trimeric HA.
Experiment [35] deals with recombinant homotrimeric HA A/duck/Yangzhou/02/05 H8N4 (Influenza A virus A/duck/Yangzhou/02/2005(H8N4)). As to the kind of experiment: protein microarray, purified IgG, trimeric HA.
The target in experiment [36] is recombinant soluble homotrimeric HA of A/South Carolina/1/18 (H1N1) (Influenza A virus A/South Carolina/1/18 (H1N1)). Briefly: trimeric HA microarray, transfection supernatant set 5.
For experiment [37], the target named is T1, recombinant soluble homotrimeric HA of …. The description is as above.
For experiment [38], the target named is recombinant soluble homotrimeric HA of A/chicken/Vietnam/NCVD-016/08 (H5N1) (Influenza A virus A/chicken/Vietnam/NCVD-016/2008(H5N1)). The description is as above.

B1: TCN-548 (5092_P01) (antibody, V domains shown)
VH: QVQLQESGPGLVKPSETLSLTCTVSSGPMSDYYWSWIRQPPGKGLEWIGHVSVSHGGRTKSNPSVMSRVTISVETSKNQFSLKLTSVTAADTAVYYCARLNYYDRSGYHSPDGPSNNWFDPWGQGTLVTVSS
VL: not shown
On to B1, for which the Trimeric HA Binding: RLU in experiment [1] was 234 RLU; in experiment [2] it was 416 RLU; in experiment [3] it was 758 RLU; in [4], 283 RLU; in experiment [5], 184 RLU; in experiment [6], 240 RLU. In addition, the Trimeric HA Binding: RLU amounted to 818 RLU in experiment [7]; 1020 RLU in [8]; 2130 RLU in [9]; 750 RLU in [10]; 1150 RLU in [11]; 1060 RLU in experiment [12]. Further, the Trimeric HA Binding: RLU in [13] was determined as 5740 RLU; in experiment [14] it was 2100 RLU; in [15] it was 1620 RLU.

B2: TCN-558 (5248_H10b) (antibody, V domains shown)
VH: QVQLVQSGSEVKKPGTSVKVSCTASGSVFTNYGISWVRQAPGQGLEWMGGIIPLFGAAKYAQKFQGRVTITADESTKTVYMELSRLTSKDTAIYFCAKAPRVYEYYFDQWGQGTPVTVSS
VL: EIVMTQFPATLSVSPGERVTLSCRASQSVSNNLAWYQQKPGQPPRLLIYDASTRATGVPAKFSGTGSGTEFTLSISSLQSEDFAVYYCQQYHNWPPSYSFGLGTKLEIK
Turning to B2, the Trimeric HA Binding: RLU in experiment [7] stood at 20200 RLU; in [16], 21900 RLU; in experiment [8], 34400 RLU; in experiment [9] it was 5840 RLU; in [10] it was 36100 RLU; in [11] it was 40700 RLU. For the same molecule, the Trimeric HA Binding: RLU in [17] is 26600 RLU; in experiment [12], 33400 RLU; in experiment [14] it was 29400 RLU; in [15], 10000 RLU; in experiment [18], 24700 RLU; in experiment [19] it was 25500 RLU. Further, the Trimeric HA Binding: RLU in experiment [20] came out at 4380 RLU; in experiment [21], 257 RLU; in experiment [22], 27200 RLU; in experiment [23] it was 623 RLU; in experiment [24], 22000 RLU; in [25] it was 13600 RLU. In addition, the Trimeric HA Binding: RLU in experiment [26] was 320 RLU; in experiment [27], 9730 RLU; in experiment [28] it was 12300 RLU.

B3: TCN-541 (5062_M11) (antibody, V domains shown)
VH: QVQLQESGPGLVKPSETLSLTCTVSGGSINSYYWNWIRQPPGKGLEWIGYIYHSGSTNYNPSLKSRVTISVDTSKNQFSLQLSSVTAADTAVYYCARLRTDYGDPDSVYYYGMDVWGQGTTVTVSS
VL: SYELTQPPSVSVSPGQTARITCSGDALPKQNAYWYQQKPGQAPVLLIYKDSERPSGIPERFSGSSSGTTVTLTISGVQAEDEADYYCQSADSSGTSWVFGGGTKLTVL
Consider B3, for which the Trimeric HA Binding: RLU in experiment [29] was 30 RLU; in experiment [30], 43 RLU; in [31], 2920 RLU; in experiment [32], 970 RLU; in experiment [18], 348 RLU; in [19], 791 RLU. Besides, the Trimeric HA Binding: RLU in [21] was 175 RLU; in experiment [33], 160 RLU; in experiment [22] it was 934 RLU; in experiment [25] it was 192 RLU; in [34], 1150 RLU; in experiment [35], 352 RLU. In addition, the results for the Trimeric HA Binding: RLU in experiment [36], in [37] and in [38] were 2580 RLU, 45500 RLU and 11000 RLU, respectively.
